T1: hsCLDN-4/cCpE complex (tagless proteins) (Homo sapiens CLDN4; Clostridium …)
T1 chain 1: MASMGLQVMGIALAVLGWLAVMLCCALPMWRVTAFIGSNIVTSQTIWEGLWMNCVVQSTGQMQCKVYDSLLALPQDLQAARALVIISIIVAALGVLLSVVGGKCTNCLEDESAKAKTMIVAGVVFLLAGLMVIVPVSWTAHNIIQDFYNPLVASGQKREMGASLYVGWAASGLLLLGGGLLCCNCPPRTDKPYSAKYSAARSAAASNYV
T1 chain 2: not shown

T2: Clostridium perfringens enterotoxin with C-terminal decahistidine tag (CpE-His10) (Clostridium perfringens, UniProt P01558 1-319)
T2 sequence: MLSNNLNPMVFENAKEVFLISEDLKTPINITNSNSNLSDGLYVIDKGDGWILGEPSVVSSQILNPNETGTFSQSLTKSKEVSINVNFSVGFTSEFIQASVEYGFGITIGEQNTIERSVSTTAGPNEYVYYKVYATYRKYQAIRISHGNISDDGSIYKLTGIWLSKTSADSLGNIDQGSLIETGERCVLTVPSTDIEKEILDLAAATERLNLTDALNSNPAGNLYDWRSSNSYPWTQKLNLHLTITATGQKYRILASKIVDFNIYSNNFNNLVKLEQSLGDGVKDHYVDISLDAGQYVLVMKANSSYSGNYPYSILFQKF

T3: pre-formed non-detergent hsCLDN-4/cCpE-His10 complex (hsCLDN-4 in amphipol A8-35 or in nanodiscs) (Homo sapiens CLDN4; Clostridium …)
T3 chain 1: T1 chain 1
T3 chain 2: not shown

B1: COP-3 (antibody, V domains shown)
VH: EVQLVESGGGLVQPGGSLRLSCAASGFNFYSSSIHWVRQAPGKGLEWVAYISSYSGYTYYADSVKGRFTISADTSKNTAYLQMNSLRAEDTAVYYCARGYGYFDYNFSVGYALDYWGQGTLVTVSS
VL: DIQMTQSPSSLSASVGDRVTITCRASQSVSSAVAWYQQKPGKAPKLLIYSASSLYSGVPSRFSGSRSGTDFTLTISSLQPEDFATYYCQQSHPWYYPITFGQGTKVEIK
B2: human claudin-3, biotinylated (hsCLDN-3-Biotin) (natural protein)
chain: MSMGLEITGTALAVLGWLGTIVCCALPMWRVSAFIGSNIITSQNIWEGLWMNCVVQSTGQMQCKVYDSLLALPQDLQAARALIVVAILLAAFGLLVALVGAQCTNCVQDDTAKAKITIVAGVLFLLAALLTLVPVSWSANTIIRDFYNPVVPEAQKREMGAGLYVGWAAAALQLLGGALLCCSCPPREKKYTATKVVYSAPRSTGPGASLGTGYDRKDYV
modifications: biotin (NHS-PEG4-Biotin) on the N-terminal amine
B3: COP-1 (CpE Obstructing Protein 1), synthetic antibody fragment (Fab, V domains shown)
VH: EVQLVESGGGLVQPGGSLRLSCAASGFNFSSSYIHWVRQAPGKGLEWVASISSSSGSTSYADSVKGRFTISADTSKNTAYLQMNSLRAEDTAVYYCARWFHPWWWWEYLFRGAIDYWGQGTLVTVSS
VL: DIQMTQSPSSLSASVGDRVTITCRASQSVSSAVAWYQQKPGKAPKLLIYSASSLYSGVPSRFSGSRSGTDFTLTISSLQPEDFATYYCQQSSSSLITFGQGTKVEIK
notes: also called sFab
B4: mouse claudin-3, biotinylated (mmCLDN-3-Biotin) (natural protein)
chain: MSMGLEITGTSLAVLGWLCTIVCCALPMWRVSAFIGSSIITAQITWEGLWMNCVVQSTGQMQCKMYDSLLALPQDLQAARALIVVSILLAAFGLLVALVGAQCTNCVQDETAKAKITIVAGVLFLLAALLTLVPVSWSANTIIRDFYNPLVPEAQKREMGAGLYVGWAAAALQLLGGALLCCSCPPRDKYAPTKILYSAPRSTGPGTGTGTAYDRKDYV
modifications: biotin (NHS-PEG4-Biotin) on the N-terminal amine
B5: mouse claudin-4, biotinylated (mmCLDN-4-Biotin) (natural protein)
chain: MASMGLQVLGISLAVLGWLGIILSCALPMWRVTAFIGSNIVTAQTSWEGLWMNCVVQSTGQMQCKMYDSMLALPQDLQAARALMVISIIVGALGMLLSVVGGKCTNCMEDETVKAKIMITAGAVFIVASMLIMVPVSWTAHNVIRDFYNPMVASGQKREMGASLYVGWAASGLLLLGGGLLCCSCPPRSNDKPYSAKYSAARSVPASNYV
modifications: biotin (NHS-PEG4-Biotin) on the N-terminal amine
B6: human claudin-4, biotinylated (hsCLDN-4-Biotin) (natural protein)
chain: T1 chain 1
modifications: biotin (NHS-PEG4-Biotin) on the N-terminal amine
B7: human claudin-9, biotinylated (hsCLDN-9-Biotin) (natural protein)
chain: MASTGLELLGMTLAVLGWLGTLVSCALPLWKVTAFIGNSIVVAQVVWEGLWMSCVVQSTGQMQCKVYDSLLALPQDLQAARALCVIALLLALLGLLVAITGAQCTTCVEDEGAKARIVLTAGVILLLAGILVLIPVCWTAHAIIQDFYNPLVAEALKRELGASLYLGWAAAALLMLGGGLLCCTCPPPQVERPRGPRLGYSIPSRSGASGLDKRDYV
modifications: biotin (NHS-PEG4-Biotin) on the N-terminal amine

How the values were obtained:
[1] = molecular target: T1, hsCLDN-4/cCpE complex (tagless proteins)
[2] = molecular target: C-terminal domain of Clostridium perfringens enterotoxin (cCpE), tagless (Clostridium perfringens, UniProt P01558)
[3] = molecular target: T2, Clostridium perfringens enterotoxin …; assay: BLI; conditions: both partners purified
[4] = molecular target: T4, pre-formed hsCLDN-3-Biotin/CpE-His10 complex (Homo sapiens CLDN3; Clostridium …, UniProt O15551;P01558); assay: BLI; conditions: both partners purified
T4 construct: source: pre-formed from the purified proteins (same method as the cCpE complexes)

[5] = molecular target: T3, pre-formed non-detergent …; assay: BLI; conditions: both partners purified
[6] = molecular target: T5, C-terminal domain of Clostridium perfringens enterotoxin with decahistidine tag (cCpE-His10) (Clostridium perfringens, UniProt P01558); assay: BLI; conditions: both partners purified
T5 construct: source: insect cells, purified (NiNTA, eluted with imidazole); not shown: His10, C-terminal, kept

Row | Binder | Kd [3] | also measured
1 | B1 |  | binding result [1]: binds; binding result [2]: binds
2 | B2 | 77.6 ± 0.9 nM | 
3 | B3 |  | binding result [4]: no binding (tested: 250 nM COP-1); Kd [5]: < 100 nM; binding result [6]: no binding (tested: 0–750 nM COP-1)
4 | B4 | 16.1 ± 0.2 nM | 
5 | B5 | 17.9 ± 0.2 nM | 
6 | B6 | 7.3 ± 0.2 nM | 
7 | B7 | 10.5 ± 0.2 nM | 

— PMC11183071 (Communications Biology, 2024)
